According to paper PMC2888265:
Where two headings read alike, the source gives them in different places.

Key:
Assay in all cases: crystal structure
[1] = target: Teg12 (uncultured bacterium (DNA extracted directly from desert soil))
[2] = target: Teg12 (uncultured bacterium (DNA extracted directly from desert soil)); remark: listed apart in the source
[3] = target: Teg12 (uncultured bacterium (DNA extracted directly from desert soil)); remark: listed apart in the source

Measured: stoichiometry N

Teg12 (enzyme)
2: [1] | [2] | [3]
